The source of these data is article PMC11106487.

“And” between values parts separate entries of the source, which are not always exact repeats. Equal values may be shown once.

Test [1] addresses GFP-FR (GFP fused to the GPI attachment signal of the folate receptor), expressed in MDCK cells. In words: number and brightness (N&B); live polarized MDCK cells on filters, apical surface, CO2-independent medium pH 7.4; control cells and cells treated with latrunculin A (6 uM, 5 min), jasplakinolide (5 uM, 5 min) or blebbistatin (50 uM, 90 min); also after EGTA followed by calcium replenishment for 3 h; B-values ascribed to oligomer classes by a calibration curve of monomeric, dimeric and trimeric GFP.

For test [2] the target is unchanged. Description: number and brightness (N&B); live polarized MDCK cells, Golgi pool: apical trypsin 25 ug/mL for 25 min to remove the surface pool, untreated (CTR), imaged at the Golgi level.
Test [3] has the same target. In words: number and brightness (N&B); live polarized MDCK cells, plasma membrane pool only: cycloheximide 90 min, then with or without EGTA still in the presence of cycloheximide.
Test [4] deals with GFP-FR, stably expressed in CHO cells. Description: number and brightness (N&B); live CHO cells, 2 days in culture, cell surface imaged at the cell periphery; untreated control.

A word on the stoichiometry N: it is the number of molecules, sites or subunits per partner or assembly.

Take “GFP-FR (GFP fused to the GPI attachment signal of the folate receptor), expressed in MDCK cells”: in test [1], the brightness (B) was 1.21; the brightness (B) upon latrunculin A turned out to be 1.23; the mean brightness (B), control of the EGTA experiment was 1.29; the stoichiometry N is 3 and 4. In addition, the mean brightness (B), Golgi pool, control in test [2] worked out at 1.2. In test [3], the mean brightness (B), plasma membrane pool, control came out at 1.19 and the mean brightness (B), plasma membrane pool, upon EGTA stood at 1.2.
Turning to GFP-FR, stably expressed in CHO cells, in test [4], the brightness (B) amounted to 1.3; the stoichiometry N is 3 and 4.
